PMC11573620 (Molecular Therapy, 2024)

Target: T1, human CD155 extracellular domain fused to mouse Fc (human, UniProt P15151 21-343)
T1 sequence (looked up): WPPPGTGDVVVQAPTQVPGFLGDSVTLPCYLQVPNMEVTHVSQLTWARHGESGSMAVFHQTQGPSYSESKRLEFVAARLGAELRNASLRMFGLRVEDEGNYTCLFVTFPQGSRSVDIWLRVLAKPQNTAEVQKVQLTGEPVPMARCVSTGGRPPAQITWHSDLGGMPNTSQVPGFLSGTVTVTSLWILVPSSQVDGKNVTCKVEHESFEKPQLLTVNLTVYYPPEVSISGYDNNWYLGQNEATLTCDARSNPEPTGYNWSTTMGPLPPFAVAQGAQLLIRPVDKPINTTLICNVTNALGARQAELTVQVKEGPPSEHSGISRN
Assay: ELISA

binding result: binds
B1: human TIGIT extracellular domain, biotinylated (domain or fragment, UniProt Q495A1 22-141, looked up)
chain: MMTGTIETTGNISAEKGGSIILQCHLSSTTAQVTQVNWEQQDQLLAICNADLGWHISPSFKDRVAPGPGLGLTLQSLTVNDTGEYFCIYHTYPDGTYTGRIFLEVLESSVAEHGARFQIP
modifications: biotin
